Test results published in patent US6730779B2, “Antibody that specifically binds an Mch4 polypeptide” (IDUN Pharmaceuticals, Inc., priority 1996, dated 2004).

How the values were obtained:
Mch4 = target: T1, Mch4 (Homo sapiens, UniProt Q92851); assay: Continuous fluorometric assay of recombinant Mch4 protease activity (kinetic parameters); details: for Km: tetrapeptide substrate, bacterially expressed GST-Mch4, ICE buffer pH 7.5, room temperature
T1 sequence (Q92851 194-372 isoform Q92851-2): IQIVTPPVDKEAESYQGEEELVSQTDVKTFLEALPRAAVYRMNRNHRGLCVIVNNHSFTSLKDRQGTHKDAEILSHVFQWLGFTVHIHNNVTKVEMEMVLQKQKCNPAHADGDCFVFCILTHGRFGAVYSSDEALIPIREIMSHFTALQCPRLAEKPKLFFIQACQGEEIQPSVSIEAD
T1 sequence (Q92851 373-479 isoform Q92851-2): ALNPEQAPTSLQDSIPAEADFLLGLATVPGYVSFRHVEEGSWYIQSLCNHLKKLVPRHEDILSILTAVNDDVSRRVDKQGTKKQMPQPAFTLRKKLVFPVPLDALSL
Protocol: The kinetic properties of bacterially expressed recombinant Mch4 were determined using the tetrapeptide substrates DEVD-AMC and YVAD-AMC in a continuous fluorometric assay (Table I). […] After induction with IPTG, bacterial extracts were prepared from E. coli expressing the recombinant fusion proteins. The extracts were adsorbed to glutathione-Sepharose resin, washed several times and then analyzed by SDS-PAGE.
The purified Mch4 GST-fusion protein was then used for further enzymatic analyses. The activity of Mch4 was measured using bacterial lysates prepared with ICE buffer (25 mM HEPES, 1 mM EDTA, 5 mM DTT, 0.1% CHAPS, 10% sucrose, pH 7.5) at room temperature (24-25° C.).

CPP32 [1] = target: T2, CPP32 (Homo sapiens, UniProt P42574); assay: Kinetic comparison of CPP32 with tetrapeptide substrates; details: CPP32 versus Mch4
T2 sequence (P42574 29-175 limits assumed): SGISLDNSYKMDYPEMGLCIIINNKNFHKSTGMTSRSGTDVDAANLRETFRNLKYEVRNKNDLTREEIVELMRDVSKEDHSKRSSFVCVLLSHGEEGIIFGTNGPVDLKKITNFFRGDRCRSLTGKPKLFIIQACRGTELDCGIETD
T2 sequence (P42574 176-277 limits assumed): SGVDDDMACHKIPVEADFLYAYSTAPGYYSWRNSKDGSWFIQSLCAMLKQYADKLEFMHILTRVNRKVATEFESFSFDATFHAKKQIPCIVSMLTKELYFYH

[2] = tested on: MCF7 human breast carcinoma cell line; assay: Apoptosis of MCF7 cells after transfection with Mch5B expression vector; details: 36 hours after transfection, control plasmid pcDNA3 about 50%
CPP32 [3] = target: T2, CPP32; details: cited from earlier work
Sf9 cells = assay: Induction of apoptosis in Sf9 cells by recombinant baculovirus expression; format: cell-based; details: about 48 h postinfection
Text: Briefly, Sf9 cells were infected with recombinant baculoviruses encoding full length proMch4 or full length CPP32 as a standard (Fernandes-Alnemri et al., J. Biol. Chem. 269:30761-30764 (1994)). Cells were then examined microscopically for morphological signs of apoptosis such as blebbing of the cytoplasmic membrane, condensation of nuclear chromatin and release of small apoptotic bodies. In addition the genomic DNA was examined for internucleosomal DNA cleavage.
For the construction of transfer vectors and recombinant baculoviruses, the full length proMch4 in pBluescript KS+ was excised with Bam HI and EcoRI and subcloned into a Bam HI/EcoRI cut pVL1393 vector (Invitrogen, San Diego, Calif.) to generate the pVL-proMch4 transfer vector. The pVL-CPP32 transfer vector was made as described previously (Fernandes-Alnemri et al., supra (1994)). […]
For-the induction of apoptosis in Sf9 cells by proMch4 and CPP32 cells were infected with recombinant baculoviruses AcNPV-proMch4 or AcNPV-CPP32. Apoptosis was measured microscopically by counting cells with the appropriate morphology (blebbing, nuclear condensation). Alternatively, internucleosomal DNA cleavage is assessed as a characteristic marker. […] The DNA samples were analyzed by electrophoresis in a 1.8% agarose gel containing ethidium bromide.

Question: With `CC(=O)N[C@@H](CC(=O)O)C(=O)N[C@@H](CCC(=O)O)C(=O)N[C@H](C(=O)N[C@H](C=O)CC(=O)O)C(C)C` [DEVD-CHO] as the molecule, how does the Ki (Mch4) read?
Answer: The Ki was 0.014 µM.

Question: For “DEVD-AMC: fluorescent tetrapeptide substrate representing the PARP cleavage site”, which “specificity of CPP32 for the substrate compared to Mch4 (ratio of Vmax/Km)” value (CPP32 [1]) is on record?
Answer: Its value is over 500 fold.

Question: What about the Km (Mch4) of the same molecule?
Answer: Its Km is 130 µM.

Question: For “Mch5B: FADD-like domain B of proMch5 (amino acid 128-205), expressed from pcDNA3 vector in MCF7 cells”, which “percentage of transfected cells that were apoptotic” value [2] is on record?
Answer: Its value is “about 80%”.

Question: What does the source list for “YVAD-AMC: tetrapeptide substrate representing the IL-1β cleavage site”?
Answer: KM for YVAD-AMC relative to KM for DEVD-AMC (CPP32 [3]): > 35 fold; Km (Mch4): 150 µM

B1: proMch4: full length proMch4 (SEQ ID NO:2) expressed in Sf9 cells by recombinant baculovirus (protein)
chain: MKSQGQHWYSSSDKNCKVSFREKLLIIDSNLGVQDVENLKFLCIGLVPNKKLEKSSSASDVFEHLLAEDLLSEEDPFFLAELLYIIRQKKLLQHLNCTKEEVERLLPTRQRVSLFRNLLYELSEGIDSENLKDMIFLLKDSLPKTEMTSLSFLAFLEKQGKIDEDNLTCLEDLCKTVVPKLLRNIEKYKREKAIQIVTPPVDKEAESYQGEEELVSQTDVKTFLEALPRAAVYRMNRNHRGLCVIVNNHSFTSLKDRQGTHKDAEILSHVFQWLGFTVHIHNNVTKVEMEMVLQKQKCNPAHADGDCFVFCILTHGRFGAVYSSDEALIPIREIMSHFTALQCPRLAEKPKLFFIQACQGEEIQPSVSIEADALNPEQAPTSLQDSIPAEADFLLGLATVPGYVSFRHVEEGSWYIQSLCNHLKKLVPRHEDILSILTAVNDDVSRRVDKQGTKKQMPQPAFTLRKKLVFPVPLDALSI
Question: For B1, which “induction of apoptosis (morphology, internucleosomal DNA cleavage)” value (Sf9 cells) is on record?
Answer: Its value is “caused a significant percentage of the cells to undergo apoptosis”.
